Test results reported in the supplement of paper PMC5998384.

Key:
HeLa Kyoto [1] = experiment: solubility in G1/S (NP-40 vs SDS abundance) (log2 ratio); higher = more soluble; details: cell cycle stage: G1/S
HeLa Kyoto [2] = experiment: thermal stability score vs G1/S (z-score of summed log2 fold changes over temperatures); higher = more thermally stable than in G1/S
HeLa Kyoto [3] = experiment: melting temperature (median over replicates), in situ; higher = more thermally stable
HeLa Kyoto [4] = experiment: solubility change mitosis vs G1/S (difference of NP-40 vs SDS log2 ratios) (log2 ratio difference); higher = more soluble in mitosis
[5] = cell cycle stage: early G1 (4.5 h after nocodazole release)
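For melting temperature (median over replicates), in situ in this document: HeLa Kyoto cells synchronized by double thymidine or nocodazole block, proteins quantified by TMT10plex mass spectrometry, three independent biological replicates.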
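For solubility change mitosis vs G1/S (difference of NP-40 vs SDS log2 ratios) in this document: synchronized HeLa Kyoto cells (double thymidine block for G1/S, nocodazole release for mitosis), protein amounts in NP-40 versus SDS lysates quantified by mass spectrometry, three biological replicates.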
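For solubility in G1/S (NP-40 vs SDS abundance) in this document: HeLa Kyoto cells arrested at G1/S by double thymidine block, proteins quantified by TMT10plex mass spectrometry in mild NP-40 versus SDS extracts, three biological replicates.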
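For thermal stability score vs G1/S (z-score of summed log2 fold changes over temperatures) in this document: synchronized HeLa Kyoto cells, proteins quantified by TMT10plex mass spectrometry, three biological replicates, mitosis taken 0.5 h after nocodazole release, G1/S directly after double thymidine block.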

| Sequence | solubility in G1/S (log2) (HeLa Kyoto [1]) | thermal stability score (HeLa Kyoto [2]; [5]) | thermal stability score (HeLa Kyoto [2]; cell cycle stage: mitosis) | melting temperature (HeLa Kyoto [3]; cell cycle stage: G1/S) [°C] | melting temperature (HeLa Kyoto [3]; cell cycle stage: mitosis) [°C] | solubility change mitosis (log2) (HeLa Kyoto [4]) |
| --- | --- | --- | --- | --- | --- | --- |
| MSCAGAAAAPRLWRLRPGARRSLSAYGRRTSVRFRSSGMTLDNISRAAVDRIIRVDHAGEYGANRIYAGQMAVLGRTSVGPVIQKMWDQEKDHLKKFNELMVTFRVRPTVLMPLWNVLGFALGAGTALLGKEGAMACTVAVEESIAHHYNNQIRTLMEEDPEKYEELLQLIKKFRDEELEHHDIGLDHDAELAPAYAVLKSIIQAGCRVAIYLSERL [COQ7] | -0.0496 | -2.12 | -0.639 | 56.1 | 53.4 | -0.0504 |
| MSCPVPACCALLLVLGLCRARPRNALLLLADDGGFESGAYNNSAIATPHLDALARRSLLFRNAFTSVSSCSPSRASLLTGLPQHQNGMYGLHQDVHHFNSFDKVRSLPLLLSQAGVRTGIIGKKHVGPETVYPFDFAYTEENGSVLQVGRNITRIKLLVRKFLQTQDDRPFFLYVAFHDPHRCGHSQPQYGTFCEKFGNGESGMGRIPDWTPQAYDPLDVLVPYFVPNTPAARADLAAQYTTVGRMDQGVGLVLQELRDAGVLNDTLVIFTSDNGIPFPSGRTNLYWPGTAEPLLVSSPEHPKRWGQVSEAYVSLLDLTPTILDWFSIPYPSYAIFGSKTIHLTGRSLLPALEAEPLWATVFGSQSHHEVTMSYPMRSVQHRHFRLVHNLNFKMPFPIDQDFYVSPTFQDLLNRTTAGQPTGWYKDLRHYYYRARWELYDRSRDPHETQNLATDPRFAQLLEMLRDQLAKWQWETHDPWVCAPDGVLEEKLSPQCQPLHNEL [SGSH] | 0.401 | -1.28 | -1.81 | 53.5 | 58 | -0.261 |
| MSDFDSNPFADPDLNNPFKDPSVTQVTRNVPPGLDEYNPFSDSRTPPPGGVKMPNVPNTQPAIMKPTEEHPAYTQIAKEHALAQAELLKRQEELERKAAELDRREREMQNLSQHGRKNNWPPLPSNFPVGPCFYQDFSVDIPVEFQKTVKLMYYLWMFHAVTLFLNIFGCLAWFCVDSARAVDFGLSILWFLLFTPCSFVCWYRPLYGAFRSDSSFRFFVFFFVYICQFAVHVLQAAGFHNWGNCGWISSLTGLNQNIPVGIMMIIIAALFTASAVISLVMFKKVHGLYRTTGASFEKAQQEFATGVMSNKTVQTAAANAASTAASSAAQNAFKGNQI [SCAMP1] | 0.0609 | -0.608 | -0.121 | 55.8 | 56 | -0.114 |
| MSDGFDRAPGAGRGRSRGLGRGGGGPEGGGFPNGAGPAERARHQPPQPKAPGFLQPPPLRQPRTTPPPGAQCEVPASPQRPSRPGALPEQTRPLRAPPSSQDKIPQQNSESAMAKPQVVVAPVLMSKLSVNAPEFYPSGYSSSYTESYEDGCEDYPTLSEYVQDFLNHLTEQPGSFETEIEQFAETLNGCVTTDDALQELVELIYQQATSIPNFSYMGARLCNYLSHHLTISPQSGNFRQLLLQRCRTEYEVKDQAAKGDEVTRKRFHAFVLFLGELYLNLEIKGTNGQVTRADILQVGLRELLNALFSNPMDDNLICAVKLLKLTGSVLEDAWKEKGKMDMEEIIQRIENVVLDANCSRDVKQMLLKLVELRSSNWGRVHATSTYREATPENDPNYFMNEPTFYTSDGVPFTAADPDYQEKYQELLEREDFFPDYEENGTDLSGAGDPYLDDIDDEMDPEIEEAYEKFCLESERKRKQ [PAIP1] | 0.466 | 1.49 | 1.64 | 52.9 | 52.8 | 0.154 |
| MSDKDDIETPLLTEAAPILEDGNCEPAKNSESVDQGAKPESKSEPVVSTRKRPETKPSSDLETSKVLPIQDNVSKDVPQTRWGYWGSWGKSILSSASATVATVGQGISNVIEKAETSLGIPGPSEISTEVKYVAGETNAKENENSSPVAGAFGVFSTISTAVQSTGKSVISGGLDALEFIGKKTMDVIAEGDPGFKRTKGLMNRNATLSQVLREAKEKEEIRTSNEVTVETDKKTHYGLLFDEFQGLSHLEALEMLSQESEIKVKSILNSLSGEELETLKVELEQLKETFSLAEFCEEEEEEKKGDEDFTKDITELFSQLHVSSKPEKLARARNTAHEWIRKSLTKPLAENEEGEKQSEAENTEQVNKNSIEDIHAFAIRSLAELTACSIELFHKTAALVLHGRKQEVTAIERSQTLSQMTIVLCKELSSLSKEFTTCLTTAGVKEMADVLNPLITAVFLEASNSASYIQDAFQLLLPVLEISLIENKIESHRHELQGQKPLLEH [FAM114A2] | 0.326 | 0.464 | 0.0988 | 52.3 | 52 | -0.0154 |
| MSDLQAAEGPGSWSPTARPGSAGGVGDCQGVEGSQAAASENEDLENKDTSLLASATDPEPCSSPHRPQMVSPVSKDATEDLRKATGPLEAQALVKQDLLPADQAQVLNEMAKYQVPQRSGDIVMIQSEHTGAIDVLSADLESADLLGDHRKVSPPLMAPPCIWTFAKVKEFKSKLGKEKNSRLVVKRGEVVTIRVPTHPEGKRVCWEFATDDYDIGFGVYFDWTPVTSTDITVQVSDSSDDEDEEEEEEEEIEEPVPAGDVERGSRSSLRGRYGEVMPVYRRDSHRDVQAGSHDYPGEGIYLLKFDNSYSLLRNKTLYFHIYYTS [TMED8] | 0.328 | -0.422 | -0.616 | 50.4 | 50.3 | -0.104 |
| MSDTAVADTRRLNSKPQDLTDAYGPPSNFLEIDIFNPQTVGVGRARFTTYEVRMRTNLPIFKLKESCVRRRYSDFEWLKNELERDSKIVVPPLPGKALKRQLPFRGDEGIFEESFIEERRQGLEQFINKIAGHPLAQNERCLHMFLQEEAIDRNYVPGKVRQ [SNX12] | 0.348 | -0.501 | -1.12 | 49.2 | 50.7 | 0.12 |
| MSDTLTADVIGRRVEVNGEHATVRFAGVVPPVAGPWLGVEWDNPERGKHDGSHEGTVYFKCRHPTGGSFIRPNKVNFGTDFLTAIKNRYVLEDGPEEDRKEQIVTIGNKPVETIGFDSIMKQQSQLSKLQEVSLRNCAVSCAGEKGGVAEACPNIRKVDLSKNLLSSWDEVIHIADQLRHLEVLNVSENKLKFPSGSVLTGTLSVLKVLVLNQTGITWAEVLRCVAGCPGLEELYLESNNIFISERPTDVLQTVKLLDLSSNQLIDENQLYLIAHLPRLEQLILSDTGISSLHFPDAGIGCKTSMFPSLKYLVVNDNQISQWSFFNELEKLPSLRALSCLRNPLTKEDKEAETARLLIIASIGQLKTLNKCEILPEERRRAELDYRKAFGNEWKQAGGHKDPEKNRLSEEFLTAHPRYQFLCLKYGAPEDWELKTQQPLMLKNQLLTLKIKYPHQLDQKVLEKQLPGSMTIQKVKGLLSRLLKVPVSDLLLSYESPKKPGREIELENDLKSLQFYSVENGDCLLVRW [TBCE] | 0.308 | -0.0546 | 1.48 | 47.9 | 48.4 | -0.101 |
| MSDTRRRVKVYTLNEDRQWDDRGTGHVSSTYVEELKGMSLLVRAESDGSLLLESKINPNTAYQKQQDTLIVWSEAENYDLALSFQEKAGCDEIWEKICQVQGKDPSVEVTQDLIDESEEERFEEMPETSHLIDLPTCELNKLEEIADLVTSVLSSPIRREKLALALENEGYIKKLLQLFQACENLENTEGLHHLYEIIRGILFLNKATLFEVMFSDECIMDVVGCLEYDPALAQPKRHREFLTKTAKFKEVIPITDSELRQKIHQTYRVQYIQDIILPTPSVFEENFLSTLTSFIFFNKVEIVSMLQEDEKFLSEVFAQLTDEATDDDKRRELVNFFKEFCAFSQTLQPQNRDAFFKTLAKLGILPALEIVMGMDDLQVRSAATDIFSYLVEFSPSMVREFVMQEAQQSDDDILLINVVIEQMICDTDPELGGAVQLMGLLRTLIDPENMLATTNKTEKSEFLNFFYNHCMHVLTAPLLTNTSEDKCEKDFFLKHYRYSWSFICTPSHSHSHSTPSSSISQDNIVGSNKNNTICPDNYQTAQLLALILELLTFCVEHHTYHIKNYIMNKDLLRRVLVLMNSKHTFLALCALRFMRRIIGLKDEFYNRYITKGNLFEPVINALLDNGTRYNLLNSAVIELFEFIRVEDIKSLTAHIVENFYKALESIEYVQTFKGLKTKYEQEKDRQNQKLNSVPSILRSNRFRRDAKALEEDEEMWFNEDEEEEGKAVVAPVEKPKPEDDFPDNYEKFMETKKAKESEDKENLPKRTSPGGFKFTFSHSASAANGTNSKSVVAQIPPATSNGSSSKTTNLPTSVTATKGSLVGLVDYPDDEEEDEEEESSPRKRPRLGS [PPP4R3B] | 0.0425 | 1.17 | 1.76 | 49.6 | 49.5 | -0.181 |
| MSDTSESGAGLTRFQAEASEKDSSSMMQTLLTVTQNVEVPETPKASKALEVSEDVKVSKASGVSKATEVSKTPEAREAPATQASSTTQLTDTQVLAAENKSLAADTKKQNADPQAVTMPATETKKVSHVADTKVNTKAQETEAAPSQAPADEPEPESAAAQSQENQDTRPKVKAKKARKVKHLDGEEDGSSDQSQASGTTGGRRVSKALMASMARRASRGPIAFWARRASRTRLAAWARRALLSLRSPKARRGKARRRAAKLQSSQEPEAPPPRDVALLQGRANDLVKYLLAKDQTKIPIKRSDMLKDIIKEYTDVYPEIIERAGYSLEKVFGIQLKEIDKNDHLYILLSTLEPTDAGILGTTKDSPKLGLLMVLLSIIFMNGNRSSEAVIWEVLRKLGLRPGIHHSLFGDVKKLITDEFVKQKYLDYARVPNSNPPEYEFFWGLRSYYETSKMKVLKFACKVQKKDPKEWAAQYREAMEADLKAAAEAAAEAKARAEIRARMGIGLGSENAAGPCNWDEADIGPWAKARIQAGAEAKAKAQESGSASTGASTSTNNSASASASTSGGFSAGASLTATLTFGLFAGLGGAGASTSGSSGACGFSYK [MAGED2] | 0.259 | 2.46 | 4.54 | 46.9 | 48.4 | -0.157 |
| MSDYSTGGPPPGPPPPAGGGGGAGGAGGGPPPGPPGAGDRGGGGPGGGGPGGGSAGGPSQPPGGGGPGIRKDAFADAVQRARQIAAKIGGDAATTVNNSTPDFGFGGQKRQLEDGDQPESKKLASQGDSISSQLGPIHPPPRTSMTEEYRVPDGMVGLIIGRGGEQINKIQQDSGCKVQISPDSGGLPERSVSLTGAPESVQKAKMMLDDIVSRGRGGPPGQFHDNANGGQNGTVQEIMIPAGKAGLVIGKGGETIKQLQERAGVKMILIQDGSQNTNVDKPLRIIGDPYKVQQACEMVMDILRERDQGGFGDRNEYGSRIGGGIDVPVPRHSVGVVIGRSGEMIKKIQNDAGVRIQFKQDDGTGPEKIAHIMGPPDRCEHAARIINDLLQSLRSGPPGPPGGPGMPPGGRGRGRGQGNWGPPGGEMTFSIPTHKCGLVIGRGGENVKAINQQTGAFVEISRQLPPNGDPNFKLFIIRGSPQQIDHAKQLIEEKIEGPLCPVGPGPGGPGPAGPMGPFNPGPFNQGPPGAPPHAGGPPPHQYPPQGWGNTYPQWQPPAPHDPSKAAAAAADPNAAWAAYYSHYYQQPPGPVPGPAPAPAAPPAQGEPPQPPPTGQSDYTKAWEEYYKKIGQQPQQPGAPPQQDYTKAWEEYYKKQAQVATGGGPGAPPGSQPDYSAAWAEYYRQQAAYYGQTPGPGGPQPPPTQQGQQQAQ [KHSRP] | 0.523 | 1.92 | 1.64 | 55.4 | 55.7 | 0.0471 |
| MSEADGLRQRRPLRPQVVTDDDGQAPEAKDGSSFSGRVFRVTFLMLAVSLTVPLLGAMMLLESPIDPQPLSFKEPPLLLGVLHPNTKLRQAERLFENQLVGPESIAHIGDVMFTGTADGRVVKLENGEIETIARFGSGPCKTRDDEPVCGRPLGIRAGPNGTLFVADAYKGLFEVNPWKREVKLLLSSETPIEGKNMSFVNDLTVTQDGRKIYFTDSSSKWQRRDYLLLVMEGTDDGRLLEYDTVTREVKVLLDQLRFPNGVQLSPAEDFVLVAETTMARIRRVYVSGLMKGGADLFVENMPGFPDNIRPSSSGGYWVGMSTIRPNPGFSMLDFLSERPWIKRMIFKLFSQETVMKFVPRYSLVLELSDSGAFRRSLHDPDGLVATYISEVHEHDGHLYLGSFRSPFLCRLSLQAV [APMAP] | 0.164 | 0.325 | 0.806 | 56.2 | 57.2 | -0.116 |
